# Like-named read-outs stand apart in the source and are kept apart here.
# T1: human IL-25 (human, UniProt Q9H293 33-177)
# T1 sequence: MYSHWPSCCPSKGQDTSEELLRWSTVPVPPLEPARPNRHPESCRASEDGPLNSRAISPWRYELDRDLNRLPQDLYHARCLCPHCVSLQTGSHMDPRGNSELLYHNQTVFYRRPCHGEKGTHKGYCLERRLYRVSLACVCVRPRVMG
# T2: cynomolgus monkey IL-25 (cynomolgus monkey, UniProt G7P9V9 33-176)
# T2 construct: also called cynoIL-25; cyno IL-25
# T2 sequence: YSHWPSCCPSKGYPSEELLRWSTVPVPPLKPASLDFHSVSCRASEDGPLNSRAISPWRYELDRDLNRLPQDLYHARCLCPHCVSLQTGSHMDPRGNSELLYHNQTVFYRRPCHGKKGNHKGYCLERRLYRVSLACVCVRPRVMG
# What was measured:
# human IL-25 [1] = molecular target: T1, human IL-25
# human IL-25 [2] = molecular target: T1, human IL-25; assay: Biacore, 7200 sec dissociation
# Source text: (§1) The Fabs were converted to mAbs as follows. A combinatorial library of 5 different light chains and 5 different heavy chains (including the huDDG91 light and heavy chains) was designed. The light and heavy chains used in the library differed from one another in the light chain CDR1 and CDR3 amino acid sequences and the heavy chain CDR 3 sequence. Using these light and heavy chains, a total of 25 mAbs (IgG1) were constructed, expressed in HEK293 cells at small scale and purified. Each of the mAbs was tested for IL-25 binding affinity, cellular inhibition, and receptor inhibition as follows: [0149] IL-25 binding affinity was determined using standard IL-25 ELISA and Biacore binding assays. […] Cellular inhibition was assessed using a standard TK-10 human renal carcinoma cell-based assay (IL-25 responsive; IL-25 and IL-8 readout; capable of discerning difference between soluble IL-25R and parental mAb) and a CD4+ T cell-based assay. […] Receptor inhibition was assessed using a modified bead-based electrochemiluminescence immunoassay (ECLIA). Candidates causing a greater than 3-fold decrease in IC₅₀ of IL-25 binding to receptor relative to parental huDDG91 antibody at a 10 nM mAb concentration were selected.
# human IL-25 [3] = molecular target: T1, human IL-25; assay: Receptor inhibition (column sub-head 'Panel A/ B'): bead-based ECLIA, inhibition of IL-25 binding to the IL-25 receptor
# Source text: as §1
# human IL-25 [4] = molecular target: T1, human IL-25; assay: cell-based or functional assay
# cynomolgus monkey IL-25 = molecular target: T2, cynomolgus monkey IL-25; assay: species cross-reactivity criterion; method not stated
# human IL-25 [5] = molecular target: T1, human IL-25; assay: receptor inhibition: IL-25 binding to receptor, bead-based ECLIA
# human IL-25 [6] = molecular target: T1, human IL-25; assay: Biacore, 7200 sec dissociation; first R71V G1 row
# Source text: as §1
# human IL-25 [7] = molecular target: T1, human IL-25; assay: Biacore, 7200 sec dissociation; second R71V G1 row, printed in italics = number from a different data set
# human IL-25 [8] = molecular target: T1, human IL-25; assay: Receptor inhibition (column sub-head 'Panel A/ B'): bead-based ECLIA, inhibition of IL-25 binding to the IL-25 receptor; lower end of the range
# Source text: as §1
# human IL-25 [9] = molecular target: T1, human IL-25; assay: Receptor inhibition (column sub-head 'Panel A/ B'): bead-based ECLIA, inhibition of IL-25 binding to the IL-25 receptor; upper end of the range
# Source text: as §1
# human IL-25 [10] = molecular target: T1, human IL-25; assay: Biacore, 7200 sec dissociation; printed in italics = number from a different data set
# Chain of IL-17BR (receptor) (Q9NRM6 18-292): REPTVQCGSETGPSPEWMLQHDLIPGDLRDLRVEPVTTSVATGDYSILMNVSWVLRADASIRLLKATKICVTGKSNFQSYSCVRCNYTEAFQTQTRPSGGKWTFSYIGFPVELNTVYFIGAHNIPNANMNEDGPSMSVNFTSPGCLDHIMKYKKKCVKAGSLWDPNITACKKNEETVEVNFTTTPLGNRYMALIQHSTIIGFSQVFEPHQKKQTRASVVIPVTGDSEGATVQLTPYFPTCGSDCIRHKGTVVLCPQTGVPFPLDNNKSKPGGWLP
Molecule,Kd (human IL-25 [2]) [nM],IC50 (human IL-25 [3]) [nM],"Cellular inhibition, fold change (human IL-25 [4]) [fold change]",further results
IL-17BR (receptor),0.017,0.063,,"Cellular inhibition, fold change (human IL-25 [1]): 1 fold change"
"M6 antibody (antibody, human IgG1, kappa, V domains shown, Humanized IgG1 mAb with kappa light chain, a variant of huDDG91 with three substitutions in light chain CDR3) VH: EVQLVESGAEVKKPGASVKVSCKASGYSFSGYTMNWVRQAPGQRLEWMGLINPYNGGTSYNQNFKGRVTLTVDTSASTAYLELNSLRSEDTGVYYCAREDYDGYLYFAMDYWGQGTLVTVSS VL: DIQMTQSPSSLSASVGDRVTITCSASQGISNYLNWYQQKPGKVPKLLIYYTSSLHSGVPSRFSGSGSGTDFTLTISSLQPEDVATYYCQQYLAFPYTFGQGTKLEIKR",0.053,0.012,4,affinity relative to that for human IL-25 (cynomolgus monkey IL-25): ≤ 5 fold; fold decrease in IC50 compared to huDDG91 (human IL-25 [5]): > 3 fold
"huDDG91 antibody (antibody, V domains shown, Humanized (CDR-grafted) version of murine 2C3; also called RH2.5_R71V; M9) VH: EVQLVESGAEVKKPGASVKVSCKASGYSFSGYTMNWVRQAPGQRLEWMGLINPYNGGTSYNQNFKGRVTLTVDTSASTAYLELNSLRSEDTGVYYCAREDYDGYLYFAMDYWGQGTLVTVS VL: DIQMTQSPSSLSASVGDRVTITCSASQGISNYLNWYQQKPGKVPKLLIYYTSSLHSGVPSRFSGSGSGTDFTLTISSLQPEDVATYYCQQYSKLPYTFGQGTKLEIK",,,,Kd (human IL-25 [6]): 0.194 nM; Kd (human IL-25 [7]): 0.136 nM; IC50 (human IL-25 [8]): ≥ 0.0452 nM; IC50 (human IL-25 [9]): ≤ 0.0643 nM
"I25M10 (antibody, V domains shown, One of the 9 candidate IgG1 mAbs of the combinatorial library based on huDDG91) VH: EVQLVESGAEVKKPGASVKVSCKASGYSFSGYTMNWVRQAPGQRLEWMGLINPYNGGTSYNQNFKGRVTLTVDTSASTAYLELNSLRSEDTGVYYCAREDFDSWTFFAMDYWGQGTLVTVS VL: DIQMTQSPSSLSASVGDRVTITCSASQGISNYLNWYQQKPGKVPKLLIYYTSSLHSGVPSRFSGSGSGTDFTLTISSLQPEDVATYYCQQYLAFPYTFGQGTKLEIK",0.036,0.014,5,
"I25M11 (antibody, V domains shown, One of the 9 candidate IgG1 mAbs of the combinatorial library based on huDDG91) VH: EVQLVESGAEVKKPGASVKVSCKASGYSFSGYTMNWVRQAPGQRLEWMGLINPYNGGTSYNQNFKGRVTLTVDTSASTAYLELNSLRSEDTGVYYCAREDFDSWTFFAMDYWGQGTLVTVS VL: DIQMTQSPSSLSASVGDRVTITCSASQGIASFLNWYQQKPGKVPKLLIYYTSSLHSGVPSRFSGSGSGTDFTLTISSLQPEDVATYYCQQYSSFPYTFGQGTKLEIK",0.057,0.014,5,
"I25M20 (antibody, V domains shown, One of the 9 candidate IgG1 mAbs of the combinatorial library based on huDDG91) VH: EVQLVESGAEVKKPGASVKVSCKASGYSFSGYTMNWVRQAPGQRLEWMGLINPYNGGTSYNQNFKGRVTLTVDTSASTAYLELNSLRSEDTGVYYCAREDYDSWTFFAMDYWGQGTLVTVS VL: DIQMTQSPSSLSASVGDRVTITCSASQGISNYLNWYQQKPGKVPKLLIYYTSSLHSGVPSRFSGSGSGTDFTLTISSLQPEDVATYYCQQYLAFPYTFGQGTKLEIK",,0.013,20,Kd (human IL-25 [10]): 0.045 nM
"I25M28 (antibody, V domains shown, One of the 9 candidate IgG1 mAbs of the combinatorial library based on huDDG91) VH: EVQLVESGAEVKKPGASVKVSCKASGYSFSGYTMNWVRQAPGQRLEWMGLINPYNGGTSYNQNFKGRVTLTVDTSASTAYLELNSLRSEDTGVYYCAREDFDSWTYFAMDYWGQGTLVTVS VL: DIQMTQSPSSLSASVGDRVTITCSASQGISNYLNWYQQKPGKVPKLLIYYTSSLHSGVPSRFSGSGSGTDFTLTISSLQPEDVATYYCQQYLAFPYTFGQGTKLEIK",0.019,0.014,16,
"I25M30 (antibody, V domains shown, One of the 9 candidate IgG1 mAbs of the combinatorial library based on huDDG91) VH: EVQLVESGAEVKKPGASVKVSCKASGYSFSGYTMNWVRQAPGQRLEWMGLINPYNGGTSYNQNFKGRVTLTVDTSASTAYLELNSLRSEDTGVYYCAREDFDSWTYFAMDYWGQGTLVTVS VL: DIQMTQSPSSLSASVGDRVTITCSASQGIHWNLNWYQQKPGKVPKLLIYYTSSLHSGVPSRFSGSGSGTDFTLTISSLQPEDVATYYCQQFNSFPYTFGQGTKLEIK",0.044,0.02,3,
"I25M31 (antibody, V domains shown, One of the 9 candidate IgG1 mAbs of the combinatorial library based on huDDG91) VH: EVQLVESGAEVKKPGASVKVSCKASGYSFSGYTMNWVRQAPGQRLEWMGLINPYNGGTSYNQNFKGRVTLTVDTSASTAYLELNSLRSEDTGVYYCAREDFDSWTYFAMDYWGQGTLVTVS VL: DIQMTQSPSSLSASVGDRVTITCSASQGISNYLNWYQQKPGKVPKLLIYYTSSLHSGVPSRFSGSGSGTDFTLTISSLQPEDVATYYCQQYSKLPYTFGQGTKLEIK",0.04,0.018,12,
"I25M32 (antibody, V domains shown, One of the 9 candidate IgG1 mAbs of the combinatorial library based on huDDG91) VH: EVQLVESGAEVKKPGASVKVSCKASGYSFSGYTMNWVRQAPGQRLEWMGLINPYNGGTSYNQNFKGRVTLTVDTSASTAYLELNSLRSEDTGVYYCAREDYDSWTFFAMDYWGQGTLVTVS VL: DIQMTQSPSSLSASVGDRVTITCSASQGINEYLNWYQQKPGKVPKLLIYYTSSLHSGVPSRFSGSGSGTDFTLTISSLQPEDVATYYCQQYINFPYTFGQGTKLEIK",0.087,0.011,4,
"I25M34 (antibody, V domains shown, One of the 9 candidate IgG1 mAbs of the combinatorial library based on huDDG91) VH: EVQLVESGAEVKKPGASVKVSCKASGYSFSGYTMNWVRQAPGQRLEWMGLINPYNGGTSYNQNFKGRVTLTVDTSASTAYLELNSLRSEDTGVYYCAREDFDSWTYFAMDYWGQGTLVTVS VL: DIQMTQSPSSLSASVGDRVTITCSASQGINEYLNWYQQKPGKVPKLLIYYTSSLHSGVPSRFSGSGSGTDFTLTISSLQPEDVATYYCQQYINFPYTFGQGTKLEIK",0.064,0.013,7,

# Reference: US20110318353A1 (Janssen / Centocor, published 2011)
